In the test the target is human N-type calcium channel (human) (UniProt Q00975). Briefly: cell-based or functional assay.

Among the data in patent publication US20100056456A1 are IC50 of dose-inhibition curve, whole-cell patch clamp of N-type Ca2+ current and recovery after washout (FIG. 5) values, retold here.

Sequence of human N-type calcium channel (human) (Q00975 whole entry): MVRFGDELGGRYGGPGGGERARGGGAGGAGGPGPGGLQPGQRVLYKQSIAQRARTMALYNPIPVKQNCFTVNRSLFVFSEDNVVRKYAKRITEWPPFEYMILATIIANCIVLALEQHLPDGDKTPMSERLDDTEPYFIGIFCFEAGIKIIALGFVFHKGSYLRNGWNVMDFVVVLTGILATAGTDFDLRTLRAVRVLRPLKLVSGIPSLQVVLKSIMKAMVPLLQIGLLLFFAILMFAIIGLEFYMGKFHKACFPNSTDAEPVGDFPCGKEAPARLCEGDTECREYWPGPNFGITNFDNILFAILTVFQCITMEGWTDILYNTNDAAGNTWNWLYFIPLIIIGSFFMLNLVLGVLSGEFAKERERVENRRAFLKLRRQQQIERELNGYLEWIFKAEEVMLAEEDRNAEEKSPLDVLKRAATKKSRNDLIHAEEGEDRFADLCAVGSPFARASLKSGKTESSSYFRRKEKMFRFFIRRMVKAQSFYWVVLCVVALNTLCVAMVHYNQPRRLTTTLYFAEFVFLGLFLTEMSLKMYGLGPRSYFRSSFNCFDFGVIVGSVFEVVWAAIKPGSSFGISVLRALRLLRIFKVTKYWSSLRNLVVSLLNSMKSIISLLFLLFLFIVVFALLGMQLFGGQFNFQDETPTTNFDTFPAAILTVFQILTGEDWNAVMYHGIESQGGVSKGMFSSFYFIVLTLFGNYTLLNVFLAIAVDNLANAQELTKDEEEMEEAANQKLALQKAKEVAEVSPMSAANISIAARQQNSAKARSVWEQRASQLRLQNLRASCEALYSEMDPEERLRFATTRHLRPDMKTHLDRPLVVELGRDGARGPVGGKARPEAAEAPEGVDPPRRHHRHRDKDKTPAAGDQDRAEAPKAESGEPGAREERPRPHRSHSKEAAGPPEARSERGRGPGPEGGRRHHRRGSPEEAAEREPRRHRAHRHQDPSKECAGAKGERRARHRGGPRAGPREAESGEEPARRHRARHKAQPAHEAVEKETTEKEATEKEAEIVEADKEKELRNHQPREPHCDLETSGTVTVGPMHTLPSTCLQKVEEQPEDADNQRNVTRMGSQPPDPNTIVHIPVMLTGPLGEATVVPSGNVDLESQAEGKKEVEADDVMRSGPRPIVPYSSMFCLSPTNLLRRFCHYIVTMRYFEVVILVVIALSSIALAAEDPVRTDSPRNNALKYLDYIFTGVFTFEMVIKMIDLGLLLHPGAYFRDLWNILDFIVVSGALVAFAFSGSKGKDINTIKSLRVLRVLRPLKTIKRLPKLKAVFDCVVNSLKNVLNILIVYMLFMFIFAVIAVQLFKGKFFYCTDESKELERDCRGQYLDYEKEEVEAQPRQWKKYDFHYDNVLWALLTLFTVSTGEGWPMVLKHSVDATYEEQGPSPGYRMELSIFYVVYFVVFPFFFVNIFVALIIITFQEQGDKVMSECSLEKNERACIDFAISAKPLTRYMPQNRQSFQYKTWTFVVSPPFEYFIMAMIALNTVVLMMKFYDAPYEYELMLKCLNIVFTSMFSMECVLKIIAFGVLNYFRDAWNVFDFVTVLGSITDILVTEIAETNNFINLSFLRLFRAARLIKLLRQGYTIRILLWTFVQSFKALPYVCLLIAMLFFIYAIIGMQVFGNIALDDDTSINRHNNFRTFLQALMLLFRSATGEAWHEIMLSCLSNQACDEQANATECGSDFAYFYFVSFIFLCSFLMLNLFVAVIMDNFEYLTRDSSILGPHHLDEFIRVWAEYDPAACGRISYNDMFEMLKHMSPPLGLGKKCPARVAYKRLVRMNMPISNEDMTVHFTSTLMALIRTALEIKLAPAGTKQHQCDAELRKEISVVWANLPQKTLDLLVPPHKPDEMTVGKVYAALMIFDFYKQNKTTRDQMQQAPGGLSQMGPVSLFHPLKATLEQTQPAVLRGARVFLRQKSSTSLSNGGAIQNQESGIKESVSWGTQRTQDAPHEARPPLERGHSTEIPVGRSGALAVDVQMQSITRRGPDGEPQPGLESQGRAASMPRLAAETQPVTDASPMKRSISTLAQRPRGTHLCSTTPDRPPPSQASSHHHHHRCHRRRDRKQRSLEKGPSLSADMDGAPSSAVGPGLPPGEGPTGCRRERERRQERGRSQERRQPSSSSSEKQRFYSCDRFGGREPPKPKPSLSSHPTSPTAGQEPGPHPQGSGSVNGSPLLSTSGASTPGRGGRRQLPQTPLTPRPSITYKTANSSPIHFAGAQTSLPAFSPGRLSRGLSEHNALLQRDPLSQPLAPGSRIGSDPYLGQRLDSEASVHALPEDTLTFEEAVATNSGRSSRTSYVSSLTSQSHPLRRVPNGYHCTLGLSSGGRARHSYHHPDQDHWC

In the case of ω-conotoxin MVIIA (peptide), the IC50 of dose-inhibition curve, whole-cell patch clamp of N-type Ca2+ current is 7.96 nM and the recovery after washout (FIG. 5) is 35%.
With ω-conotoxin FVIA (peptide), the IC50 of dose-inhibition curve, whole-cell patch clamp of N-type Ca2+ current was found to be 11.5 nM and the recovery after washout (FIG. 5) is 75%.
